Experimental data taken from the supplement of paper PMC5998384.

Legend:
[1] = tested on: HeLa Kyoto; test: melting temperature (median over replicates), in situ; higher = more thermally stable
[2] = tested on: HeLa Kyoto; test: solubility change mitosis vs G1/S (difference of NP-40 vs SDS log2 ratios) (log2 ratio difference); higher = more soluble in mitosis
[3] = tested on: HeLa Kyoto; test: thermal stability score vs G1/S (z-score of summed log2 fold changes over temperatures); higher = more thermally stable than in G1/S
[4] = tested on: HeLa Kyoto; test: solubility in G1/S (NP-40 vs SDS abundance) (log2 ratio); higher = more soluble; settings: cell cycle stage: G1/S
[5] = cell cycle stage: early G1 (4.5 h after nocodazole release)
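Wherever melting temperature (median over replicates), in situ is given: HeLa Kyoto cells synchronized by double thymidine or nocodazole block, proteins quantified by TMT10plex mass spectrometry, three independent biological replicates.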
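Wherever solubility change mitosis vs G1/S (difference of NP-40 vs SDS log2 ratios) is given: synchronized HeLa Kyoto cells (double thymidine block for G1/S, nocodazole release for mitosis), protein amounts in NP-40 versus SDS lysates quantified by mass spectrometry, three biological replicates.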
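Wherever solubility in G1/S (NP-40 vs SDS abundance) is given: HeLa Kyoto cells arrested at G1/S by double thymidine block, proteins quantified by TMT10plex mass spectrometry in mild NP-40 versus SDS extracts, three biological replicates.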
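Wherever thermal stability score vs G1/S (z-score of summed log2 fold changes over temperatures) is given: synchronized HeLa Kyoto cells, proteins quantified by TMT10plex mass spectrometry, three biological replicates, mitosis taken 0.5 h after nocodazole release, G1/S directly after double thymidine block.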

Sequence | melting temperature ([1]; cell cycle stage: G1/S) [°C] | melting temperature ([1]; cell cycle stage: mitosis) [°C] | solubility change mitosis (log2) [2] | thermal stability score [3, 5] | thermal stability score ([3]; cell cycle stage: mitosis) | solubility in G1/S (log2) [4]
MSKEERPGREEILECQVMWEPDSKKNTQMDRFRAAVGAACGLALESYDDLYHWSVESYSDFWAEFWKFSGIVFSRVYDEVVDTSKGIADVPEWFKGSRLNYAENLLRHKENDRVALYIAREGKEEIVKVTFEELRQEVALFAAAMRKMGVKKGDRVVGYLPNSEHAVEAMLAAASIGAIWSSTSPDFGVNGVLDRFSQIQPKLIFSVEAVVYNGKEHNHMEKLQQVVKGLPDLKKVVVIPYVSSRENIDLSKIPNSVFLDDFLATGTSEQAPQLEFEQLPFSHPLFIMFSSGTTGAPKCMVHSAGGTLIQHLKEHLLHGNMTSSDILLCYTTVGWMMWNWMVSLLATGAAMVLYDGSPLVPTPNVLWDLVDRIGITVLVTGAKWLSVLEEKAMKPVETHSLQMLHTILSTGSPLKAQSYEYVYRCIKSSILLGSISGGTDIISCFMGHNFSLPVYKGEIQARNLGMAVEAWNEEGKAVWGESGELVCTKPIPCQPTHFWNDENGNKYRKAYFSKFPGIWAHGDYCRINPKTGGIVMLGRSDGTLNPNGVRFGSSEIYNIVESFEEVEDSLCVPQYNKYREERVILFLKMASGHAFQPDLVKRIRDAIRMGLSARHVPSLILETKGIPYTLNGKKVEVAVKQIIAGKAVEQGGAFSNPETLDLYRDIPELQGF [AACS] | 48.5 | 48 | -0.129 | 0.491 | 1.92 | 0.0299
MSRYGRYGGETKVYVGNLGTGAGKGELERAFSYYGPLRTVWIARNPPGFAFVEFEDPRDAEDAVRGLDGKVICGSRVRVELSTGMPRRSRFDRPPARRPFDPNDRCYECGEKGHYAYDCHRYSRRRRSRSRSRSHSRSRGRRYSRSRSRSRGRRSRSASPRRSRSISLRRSRSASLRRSRSGSIKGSRYFQSPSRSRSRSRSISRPRSSRSKSRSPSPKRSRSPSGSPRRSASPERMD [SRSF7] | 50.4 | 50.5 | 0.665 | -4.9 | -9.15 | -1.02
MAAGGSTQQRRREMAAASAAAISGAGRCRLSKIGATRRPPPARVRVAVRLRPFVDGTAGASDPPCVRGMDSCSLEIANWRNHQETLKYQFDAFYGERSTQQDIYAGSVQPILRHLLEGQNASVLAYGPTGAGKTHTMLGSPEQPGVIPRALMDLLQLTREEGAEGRPWALSVTMSYLEIYQEKVLDLLDPASGDLVIREDCRGNILIPGLSQKPISSFADFERHFLPASRNRTVGATRLNQRSSRSHAVLLVKVDQRERLAPFRQREGKLYLIDLAGSEDNRRTGNKGLRLKESGAINTSLFVLGKVVDALNQGLPRVPYRDSKLTRLLQDSLGGSAHSILIANIAPERRFYLDTVSALNFAARSKEVINRPFTNESLQPHALGPVKLSQKELLGPPEAKRARGPEEEEIGSPEPMAAPASASQKLSPLQKLSSMDPAMLERLLSLDRLLASQGSQGAPLLSTPKRERMVLMKTVEEKDLEIERLKTKQKELEAKMLAQKAEEKENHCPTMLRPLSHRTVTGAKPLKKAVVMPLQLIQEQAASPNAEIHILKNKGRKRKLESLDALEPEEKAEDCWELQISPELLAHGRQKILDLLNEGSARDLRSLQRIGPKKAQLIVGWRELHGPFSQVEDLERVEGITGKQMESFLKANILGLAAGQRCGAS [KIF22] | 50 | 48.2 | 0.342 | 1.72 | 2.31 | -0.459
MDPARKAGAQAMIWTAGWLLLLLLRGGAQALECYSCVQKADDGCSPNKMKTVKCAPGVDVCTEAVGAVETIHGQFSLAVRGCGSGLPGKNDRGLDLHGLLAFIQLQQCAQDRCNAKLNLTSRALDPAGNESAYPPNGVECYSCVGLSREACQGTSPPVVSCYNASDHVYKGCFDGNVTLTAANVTVSLPVRGCVQDEFCTRDGVTGPGFTLSGSCCQGSRCNSDLRNKTYFSPRIPPLVRLPPPEPTTVASTTSVTTSTSAPVRPTSTTKPMPAPTSQTPRQGVEHEASRDEEPRLTGGAAGHQDRSNSGQYPAKGGPQQPHNKGCVAPTAGLAALLLAVAAGVLL [LYPD3] | 56.9 | – | -0.185 | -2.56 | 3.5 | -0.405
MADGQMPFSCHYPSRLRRDPFRDSPLSSRLLDDGFGMDPFPDDLTASWPDWALPRLSSAWPGTLRSGMVPRGPTATARFGVPAEGRTPPPFPGEPWKVCVNVHSFKPEELMVKTKDGYVEVSGKHEEKQQEGGIVSKNFTKKIQLPAEVDPVTVFASLSPEGLLIIEAPQVPPYSTFGESSFNNELPQDSQEVTCT [HSPB8] | 52.3 | 52.1 | 0.167 | -0.244 | 0.347 | 0.653
MDRTCEERPAEDGSDEEDPDSMEAPTRIRDTPEDIVLEAPASGLAFHPARDLLAAGDVDGDVFVFSYSCQEGETKELWSSGHHLKACRAVAFSEDGQKLITVSKDKAIHVLDVEQGQLERRVSKAHGAPINSLLLVDENVLATGDDTGGICLWDQRKEGPLMDMRQHEEYIADMALDPAKKLLLTASGDGCLGIFNIKRRRFELLSEPQSGDLTSVTLMKWGKKVACGSSEGTIYLFNWNGFGATSDRFALRAESIDCMVPVTESLLCTGSTDGVIRAVNILPNRVVGSVGQHTGEPVEELALSHCGRFLASSGHDQRLKFWDMAQLRAVVVDDYRRRKKKGGPLRALSSKTWSTDDFFAGLREEGEDSMAQEEKEETGDDSD [WDR55] | 51.3 | 51.4 | -0.0465 | -0.454 | -1.73 | -0.0916
